The domain aggregation screens of Martell et al. (2025)

Test: soluble fraction after stress (log2 fold change); higher = more stays soluble; pooled small domains, quantitative proteomics
Conditions: stress: pH 4
Method in brief: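 With high-throughput quantitative proteomics, pooled custom libraries of small protein domains were measured after pH 4 stress. Each domain's soluble amount after the stress gives a fold change taken as aggregation propensity. Higher log2 values mean more of the domain stayed soluble.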

Row | Sequence | soluble fraction (log2)
1 | HMNNKVAVKSGYYFELFDKDEIPATLEKMKQKVKIDNIKYDLYQGTSLEDERKIDTMFGEKMGYSIDDYI | -0.527
2 | HMNNLVTRREVEILGWIKEGKTTSDIAGILSLSPFTVKNHVQNILKKLGARSRSHAVAQAINLGLLH | -0.446
3 | HMNNPISMQKLRQVIRLYGQGKGTKSINSMLGVSRNTIKKYLQVYHSSGINYESFLAMSDKELSAVFLV | 0.226
4 | HMNNQVTFSKFLNEVEDGRVVEVNIQGNNITGVLSDGSKFKTFSPNYPNLVEKLSEKGVSINASPL | 0.153
5 | HMNNTIKFSVDENNSGKRLDVYLTENINHLTRSFLKKLIEKEQVKLNKKVLTSPATKVKTKDQITINIIE | -0.26
6 | HMNNWYESSIKSLVEEYFREHGFSVVFDSSEFWDVFIEKYHKQIPSSQIALFDQVAAEARSYAFNKK | -0.545
7 | HMNPETLTNGSVVKMSKANLSDELIIDMINNSPARFDLSSGALRSLEGEGVSKAVIESMKRATSG | 0.0233
8 | HMNPETLTNSSVIKMSKANLSDELITDMILNSPVKFDLSAGAIKTLESEGVTPAVLESMKNAASK | 0.0677
9 | HMNPFTHEEINLMSIYNAAGTREGLIAALTEMWGYLDAEETELRELADSALAKLRGITDAEYAALELE | -2.05
10 | HMNPGAYQVKAGEGLIGLSRRYNVPVDVLASVNNLNTTSSLRVGQTITIPTAAQVNRITQQAQ | 0.254
11 | HMNPGHAERGKEIVEVFLRNNGELSMREIAEKSNITITQARRRVNKLLDQGIVEATAPVQSRNRKYRIK | 0.0708
12 | HMNPIEAQIEELKNKDQKTAYQALKHLLAISETRAEVSYYFDRFVALLQDPQSYVRTRGLLLIGA | 0.0533
13 | HMNPLLSAYLAEVERGLQGLTAGRRRLVLRELEAHLLDEAEARGLLTEEDMRALLMEKEPPERLAQEIAQ | -0.925
14 | HMNPMLEPAGEIRLSDGVLLRWQSERLPGDDTVRGPGSLYELGLYRVKVRVSAPQQGVRESSVELAGWRQV | -0.212
15 | HMNPMRYLVVPSQETETWKEYLVSKEWLERKYRIETEGDNRAIPLSNLFPKIVPIELSNLEIIEKEAFS | -1.09
16 | HMNPNEVQIPDLVNKTEDEAEQILKDLKLKLVVKSEEYNENIEKGKIISQDPPYQENYTIKEHSEISIVIS | -0.415
17 | HMNPSRPASKEELLGLFEHLERALDAVTFFRPAEKKPVVVQTLRAMLTKASFTEQDIRTMRGVIAALEN | -0.986
18 | HMNPYQDSILLWKSFDTPLTNEDFMGLSKEELRIARNEIYAAYGRIFTSQDLIDYFNSKPWYQGTTPA | -0.883
19 | HMNQDQDLSRIKGIGPEMVDRLHAQGVETLEQIAAMQMEQLKKLDQQISGNGKAVREQWAEQAKQLLTT | -0.331
20 | HMNQEFRMPNAIKGVELSEENKQQLTQGEKVFLEGMTSAKGSLFDAYVYIDQEKKTLAFDFPEK | -0.792
21 | HMNQKTQMTKQILAESLKKLMLHHSFEKITIKDITDAAGFIRPTFYNHFKDKYDLVEWIFTEEI | -0.336
22 | HMNQKVRQLLSQAQAEMERKNYKQAIKLLDQALAIEPHSGELHFMKGYAWMSMGEFEKALESLYEARNYA | -0.754
23 | HMNQPRQRKVIFELIDERNALERVLMHFAHLEKQVEKIDERKYQVTLYYDKEDETEILIRVLSFG | -1.16
24 | HMNQTEKSKITHNELLKAAHSLFIEQGFNHTTITDIVTRAGYSTGIFYKHYKTKTDILVELWTNYIE | -1.28
25 | HMNQWQLLSEDGAILGTRVLYHPHETEQPFTRSLSGVKIPAHVQSVTIRAGDLVHGFGGREIQMQLPPIV | 0.0124

Row | Sequence | soluble fraction (log2)
26 | HMNREENIQIGRDLLERELRKQGMDLQENLRQEVLLDGAKKLGFNNTDDLLAAIGDLKVTPAMFIGKIA | -0.168
27 | HMNREMLVHAIGQLKEKYASALELKYWHGFTEREIAAFLNISEKAANSRLVRGRVMLRKLLE | 0.139
28 | HMNREYELTAEESGQRLDKYLAGEMTDLSRSRIKELVQAGEILVNGKKSKVSYKVQKDDLIQVIVLPLE | -0.0759
29 | HMNRITEFVVPEGTKKIRADKLLAESFPDHSRSDFHRAFDASLVRLEGQPISKNRKISQGDVLVFEMPEI | -0.468
30 | HMNRPQDLGEPYDGQFREHPEAWAFYAAQSPSYRRSASWWVLGAKQEVTRQRRLAALIDASAQGTRIPALT | -0.0491
31 | HMNRREFQFSEGSSNKFWSIELRDQSFIVHYGKIGTNGQAQEKTFATADAAKKEHDKLIAEKTKKGYVEVQ | -0.691
32 | HMNRTKYYDFEGHPAKVVRLTLPVYLNKIGDEVVVYDSQKFAREASPISESQYNRMVAEIFQP | -0.0162
33 | HMNSEAVQNVIDKISALPDDITAKAKSQIEEARAAYEALSDSEKARVTNYSTLVAAEKKLASVVKD | 0.121
34 | HMNSEERVLDTASKWLVKLDEGLDESEAQVLKVWLATPLHRDTFLEMVALWDKMSVLNELADIV | -1.94
35 | HMNSISDSELKALIKNNYLKFLKRIASDEEIEYHFNQIKNKTILLDELDSIFQNSQEYKDLVEHNNKIQN | -0.809
36 | HMNSKQELAYQTIRARIVDGSYGPGYRIVIDEVARELGVSPIPVREAVRRLEAEGLITYTRHAGARVVA | -0.273
37 | HMNSLQLGSRGPTVSALQAKLNTMLVPSPRLVADGSFGPKTAQAVKAFQQMKRLVADGVVGPKTAAALGLS | 0.281
38 | HMNSLQNNLKQARTRVGLTQGVLASQAGISRQAYSTLESGSANPSTEVALRLAQALQERVELLFYLPER | -0.609
39 | HMNSNKFANAAAVAVAEKPADSYNPLFIYGPSGVGKTHLLYAIANEIHKHHPDYNIVYIKGDQFTNELIN | 0.201
40 | HMNSNLSLTSYEEKIFFLLEKEKNLDELILESSFKAGEILSILMDLEIKHAIVSIPGGKYRRK | -1.32
41 | HMNSNQESFENWLSANSWYNKDRAMRVFADSLGQELRNSGVSFEKALTQISAEVRKEFSHKFQ | -0.213
42 | HMNSNSLSFSKFMQEVEAGRVIEVQIKGNDIQGELSDGSKFKTYSPNYPNLVDKLSENKVSIVATPL | 0.105
43 | HMNSNTIIFSQFLSEVDNGRVTQVQIQGNNIKGTLSNGKDFITYAPNDPNLIEKLTSKGVSISASPID | 0.217
44 | HMNSNTIIINDIMTKIGKEVKNFTEIYSIILKALAEHGEEYVRTNTEYALKNFTGNFDIFLEQLLLK | -0.219
45 | HMNSRAERKEAAKEAIRNLLREGMTFEELTGPWLEKRFAEEPFNRGARSWQMLISEIKEEPEFQHL | -0.916
46 | HMNSRQPEEEALFELLAKNPYSDEQLEEIRIAIGSGISYKDVLVIADIKNTAKQMKKLRLKFTKDTG | 0.118
47 | HMNSTEQQTERFLATLTSLGGNAGNQRLQEALGWQGSTYQRIKQHLLDEGRIRTGRGRGGSVALSEATAT | ≥ 0.43
48 | HMNSTGVYQRPDGFWEYRFTLSINGKKLPRRKSTDLMGNKLKTKREAIKAREEAIIALRTEKTI | 0.4
49 | HMNSTVKVPNVVGMSVPQAKALLEQNHLLVQGIREVSTDKAPAGIVINQLPYSDAEVKEERHIYLTVSKGK | 0.0926
50 | HMNSVKSPMPGTILGLKVSVGDTVKVGDELLVLESMKMENMINSPIDGTVSKILISEGDSVQHGQELII | 0.102

Row | Sequence | soluble fraction (log2)
51 | HMNSVSARRSAAITAISTGRIHSQEDLVQALKKAGYPVTQATASRDIEEIGAVRIRNQKGEMVYAIS | 0.321
52 | HMNTEEITYSRFQQMLEAGEISQVSIESNRILILPSEETGIEKVLYTGIINDPGLVERLNSAGVEFRAPIE | -1.16
53 | HMNTEFDVPDVVGKTLDEAEFVLKGSNLKRGLIMPVDDPSKAPGTIVRQNPEAGAGNKIRVGDVVDLWVVG | 0.187
54 | HMNTELSPKVWDVVQEFILYRKEIKAPMTEHAVKLLIGQLQKLSSDPDEQIEILRQSIVNGWKGIFSLK | -0.992
55 | HMNTGTTISYSDFRDRVASGTVKEVQISDDRITGVLKNDETFNTVPVGNDSGLTKLLDDNGVTYSGTP | 0.212
56 | HMNTIFSVNGPVVKVKDTKDFSMMEMVYVGEKKLIGEVIGITESFTTIQVYEVTTGLKVGEPVYTTGAPM | 0.166
57 | HMNTIIHPIRLAYVDSGSIKSMAEQAEIDVKILTSEANSQIFWAIGDEKQIDRLYNLISQVDIIQNK | -1.42
58 | HMNTKHVFIIEQDDEKKRLDIFLVEKLQDSRSFLKKGIVEGWVKVNESVVKPNYKLKQKDQITVIIPP | -0.396
59 | HMNTNDFTIGTRVRTTKKGNGSSDGTSNTARSGIEGTITRIIPEAKYPYLVSTTVPMGWYKKDALEK | 0.157
60 | HMNTPLYLKIREQIFDALRSGRWAANDPLPSETKLASEFEVSQGTIRKAIDDLVAQNILYRHQGRGTFIRR | 0.125
61 | HMNTSSVTVHYQDEAGKSLADTVTLTGKVGETYSSEQKKITGYNFKEVRGNPKGQFTTEAQTVTYVYTQAA | -0.195
62 | HMNTWVEIFRAEDQGQIRDASLVLLAVKVAHRVDMNSSSAPWSLMVPAQDQQRAHHELTTYWQENAH | -1.35
63 | HMNVAELIEGHEAEIAEVLKEFSLLYLMRLADELGEMTKSSSGNGPFQVLKGLVYEEIARRG | -0.416
64 | HMNVAVPTPADKRKVRVMKADINAKLRVNDANGAYAVYEELKEWVTLKGFTEWNDDLSKLSETMGSMKRKV | -0.0387
65 | HMNVDALVGQRGRVTQTFDPGLRLGRVAVGGDDWRAETTTDQPLREGDLVEVVSVESNTLIVRPIA | 0.0146
66 | HMNVDSLIGQTARVIVDINNNDSIGYALVGGQEWTARAENDNDIIPKDTLVEIVGVSGVKLIVRRKE | -0.0794
67 | HMNVDSLVGSEARVTAEIDNRKETGTAMVNGQEWTARAESDEEIYPVGTIVEIRKIQGVKLIVSTH | 0.18
68 | HMNVEATAETLLALLKKNGGSLPFGDKSDPEAIQSQLKMSKKTFKKAAGTLFKKKLVRIEDHGIFL | 0.0517
69 | HMNVEGEVVVPNVIGRTMKDVAVILSDLGLRMEAEGTGVAKSSQPQHGTSVKRGTVVQVRFEPLSVN | -0.201
70 | HMNVEKLREMYPEGTKIILQEMQGESRMAKGLKGTVTHVDDAGQIHMKWENGSSLVLNVEVDTFKKIE | -0.562
71 | HMNVEVDSIGDDDFLVKVSAGTSTEHRVTLTDAYWEQIWSSSLPKKEIISLSFAFLLEREPNSSIMRT | -0.937
72 | HMNVNALIGQEGIVIKEINSGSNKIGQVKISGDTWSAVTTNDFTNAIPVGSNVKILKIDGVNLIVEPVY | 0.207
73 | HMNVNVSFTQLRHKAEHAIQAKNWSEARNLLTLATLMRPTHRNVARRLKAVEQRNRLFRRLLLILTHRKV | -0.229
74 | HMNVPFGFDEVNGKLVKNEEEQAIISEIKSLKNKGLSLRKIAEALNGRGIATKNGKAWTAVQIQRIA | 0.22
75 | HMNVPLYIMIESAVEQRLLDGTYQVGKMIPTEFELMDEFSVSRETVRKAINLLVQRGKLEKKRGIGTFVAS | -0.26
